Tests used:
[1] = target: αMβ heterodimer of HsIDH3 (α-Q139A with β) (human) (UniProt P50213); experiment: SEC-MALS; low concentration (1 mg/ml); Superdex 200 10/300 GL, 24 °C, 10 mM Hepes pH 7.4, 200 mM NaCl, 5 mM β-ME; N counts the units (heterodimers or heterotetramers) in the oligomer
[2] = target: αMβ heterodimer of HsIDH3 (α-Q139A with β) (human) (UniProt P50213); experiment: SEC-MALS; high concentration (10 mg/ml); Superdex 200 10/300 GL, 24 °C, 10 mM Hepes pH 7.4, 200 mM NaCl, 5 mM β-ME; N counts the units (heterodimers or heterotetramers) in the oligomer
[3] = target: αMβαMγ heterotetramer of HsIDH3 (α-Q139A in both heterodimers) (human) (UniProt P50213); experiment: SEC-MALS; low concentration (1 mg/ml); Superdex 200 10/300 GL, 24 °C, 10 mM Hepes pH 7.4, 200 mM NaCl, 5 mM β-ME; N counts the units (heterodimers or heterotetramers) in the oligomer
[4] = target: αMβαMγ heterotetramer of HsIDH3 (α-Q139A in both heterodimers) (human) (UniProt P50213); experiment: SEC-MALS; high concentration (10 mg/ml); Superdex 200 10/300 GL, 24 °C, 10 mM Hepes pH 7.4, 200 mM NaCl, 5 mM β-ME; N counts the units (heterodimers or heterotetramers) in the oligomer

Substance	stoichiometry N [1]	stoichiometry N [2]	stoichiometry N [3]	stoichiometry N [4]
αMβ heterodimer of HsIDH3 (α-Q139A with β) (from UniProt P50213 28-366; O43837 35-360) (complex)	2	2	–	–
αMβαMγ heterotetramer of HsIDH3 (α-Q139A in both heterodimers) (from UniProt P50213 28-366; O43837 35-360; P51553 40-393) (complex)	–	–	2	2
